Biological target: endogenous GCSF receptor of 32Dcl3 cells
Experiment: cell-based or functional assay

## hGCSF (from UniProt P09919 31-204) (ligand)
  kinase activity of Bmx in 32Dcl3 cells: 1.7 fold

Source: patent US20020173481A1
